Laboratory results taken from article PMC4601027, “Structural Analysis of the Pin1-CPEB1 interaction and its potential role in CPEB1 degradation” (Scientific Reports, 2015).
Blank lines part the entries; values can stand above or below the molecule they belong to.

Molecular target: Pin1 WW domain
Test: ITC titration of unphosphorylated CPEB1 N-terminal fragments with Pin1 WW domain
Assay type: binding
Settings: Pin1 WW domain as titrant, fragment as titrate, titrations could not be efficiently saturated, data not shown
Source text: CPEB1 proteins display high sequence conservation in vertebrates (Supplementary Fig.1). To gain insight into the association of Pin1 with CPEB1 in the basal state, we prepared two recombinant fragments named NF1 (88–183) and NF2 (196–293), selected from the N-terminal region of CPEB1 (Fig. 1a). The boundaries of these constructs were chosen to be similar to that used by Nechama et al.[14], and were extended to include Ser210, known to be essential for degradation after phosphorylation by Cdc2[9]. Since target recognition of Pin1 is achieved by the interaction of the WW domain with the protein partners, we prepared an ^15N-labeled WW domain sample and monitored the chemical shift perturbations induced in the WW domain by the presence of the ligands (1:1 WW: ligand ratio) using HSQC experiments (Fig. 1b,c). These experiments reveal that, despite the low affinity associations, residues of the WW domain are clearly affected by the presence of the CPEB 1 fragments. Attempts to saturate the NMR titration using high ligand excess were precluded due to the aggregation tendency of the NF1 and NF2 fragments. […]
ITC measurements were performed using a nano ITC calorimeter (TA Instruments) at 12 °C or 25 °C. […] Protein concentration was measured in a NanoDrop™ 2000 measuring the UV absorption at 280 nm. Peptide concentration was determined by amino acid analysis. […]

binding affinity to Pin1 WW domain: high μM up to the mM range
B1: NF2: recombinant unphosphorylated fragment (196–293) of the N-terminal region of CPEB1 Isoform 1 (Uniprot Q9BZB8) (protein, UniProt Q9BZB8 196-293, looked up, fragment)
chain: DHLSDLISSLRISPPLPFLSLSGGGPRDPLKMGVGSRMDQEQAALAAVTPSPTSASKRWPGASVWPSWDLLEAPKDPFSIEREARLHRQAAAVNEATC

binding affinity to Pin1 WW domain: high μM up to the mM range
B2: NF1: recombinant unphosphorylated fragment (88–183) of the N-terminal region of CPEB1 Isoform 1 (Uniprot Q9BZB8) (protein, UniProt Q9BZB8 88-183, looked up, fragment)
chain: GLPDANDLCLGLQSLSLTGWDRPWSTQDSDSSAQSSTHSVLSMLHNPLGNVLGKPPLSFLPLDPLGSDLVDKFPAPSVRGSRLDTRPILDSRSSSP
